Source: the supplement of paper PMC9112550, “Optimization of the antimicrobial peptide Bac7 by deep mutational scanning” (BMC Biology, 2022)

Tested on: Escherichia coli TOP10
Experiment: shrunken log2 fold change of peptide-encoding DNA abundance (4.5 h post-induction vs induction); higher = less antimicrobial activity (less host growth inhibition)
Settings: time post-induction: 4.5 h; library: site-saturation at positions 5, 18, 19, 20
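Also: peptides expressed intracellularly from a pBAD plasmid library in pooled LB shake-flask culture, induced with 0.3% L-arabinose, DNA abundance read by NGS, three biological replicates, DESeq2 with apeglm shrinkage.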

Sequence	shrunken log2 fold change
RRIRERPPRLPRPRPRPFNQPRP	-0.279
RRIRLRPPRLPRPRPRPLWGPRP	0.151
RRIRQRPPRLPRPRPRPWFNPRP	-0.359
RRIRGRPPRLPRPRPRPMRKPRP	1.37
RRIRVRPPRLPRPRPRPCFLPRP	-0.493
RRIRFRPPRLPRPRPRPPRDPRP	1
RRIRPRPPRLPRPRPRPRIQPRP	0.389
RRIRQRPPRLPRPRPRPHQDPRP	-0.327
RRIRERPPRLPRPRPRPVYQPRP	-0.0713
RRIRTRPPRLPRPRPRPTHYPRP	0.282
RRIRGRPPRLPRPRPRPKTYPRP	0.23
RRIRQRPPRLPRPRPRPQCCPRP	-0.0133
RRIRCRPPRLPRPRPRPCINPRP	-0.0741
RRIRCRPPRLPRPRPRPAYGPRP	0.13
RRIRIRPPRLPRPRPRPGPRPRP	0.358
RRIRHRPPRLPRPRPRPCPEPRP	0.037
RRIRDRPPRLPRPRPRPTMLPRP	0.138
RRIRWRPPRLPRPRPRPEAQPRP	0.779
RRIRCRPPRLPRPRPRPPVGPRP	0.414
RRIRNRPPRLPRPRPRPAQVPRP	0.157
RRIRSRPPRLPRPRPRPPDSPRP	0.322
RRIRKRPPRLPRPRPRPHNFPRP	-0.0511
RRIRMRPPRLPRPRPRPMKCPRP	0.0208
RRIRIRPPRLPRPRPRPSFQPRP	-0.329
RRIRKRPPRLPRPRPRPYRTPRP	-0.224

Sequence	shrunken log2 fold change
RRIRTRPPRLPRPRPRPFDTPRP	-0.346
RRIRCRPPRLPRPRPRPCFEPRP	-0.00928
RRIRPRPPRLPRPRPRPRSPPRP	0.592
RRIRKRPPRLPRPRPRPPQVPRP	0.00672
RRIRWRPPRLPRPRPRPLRWPRP	1.08
RRIRFRPPRLPRPRPRPVRMPRP	0.0345
RRIRIRPPRLPRPRPRPYLPPRP	-0.206
RRIRIRPPRLPRPRPRPMHLPRP	-0.22
RRIRSRPPRLPRPRPRPNACPRP	0.0406
RRIRKRPPRLPRPRPRPGWQPRP	0.347
RRIRFRPPRLPRPRPRPWPNPRP	-0.086
RRIRNRPPRLPRPRPRPINFPRP	-0.27
RRIRERPPRLPRPRPRPLQMPRP	-0.0246
RRIRFRPPRLPRPRPRPHSQPRP	-0.351
RRIRARPPRLPRPRPRPDRSPRP	-0.0282
RRIRNRPPRLPRPRPRPAYNPRP	-0.259
RRIRYRPPRLPRPRPRPDRDPRP	-0.109
RRIRHRPPRLPRPRPRPQWCPRP	-0.218
RRIRCRPPRLPRPRPRPGAWPRP	0.462
RRIRHRPPRLPRPRPRPTQKPRP	-0.00748
RRIRRRPPRLPRPRPRPCQGPRP	-0.129
RRIRFRPPRLPRPRPRPWHSPRP	-0.018
RRIRNRPPRLPRPRPRPRHFPRP	-0.201
RRIRARPPRLPRPRPRPGIAPRP	0.331
RRIRMRPPRLPRPRPRPMVGPRP	-0.06

Sequence	shrunken log2 fold change
RRIRLRPPRLPRPRPRPYKAPRP	-0.112
RRIRFRPPRLPRPRPRPGYKPRP	-0.438
RRIRARPPRLPRPRPRPGLLPRP	0.547
RRIRPRPPRLPRPRPRPERSPRP	0.0565
RRIRVRPPRLPRPRPRPWAHPRP	-0.0201
RRIRKRPPRLPRPRPRPWQSPRP	0.0203
RRIRPRPPRLPRPRPRPAVIPRP	-0.007
RRIRVRPPRLPRPRPRPVSMPRP	-0.066
RRIRYRPPRLPRPRPRPYVMPRP	-1.04
RRIRKRPPRLPRPRPRPEQMPRP	-0.000598
RRIRGRPPRLPRPRPRPRMYPRP	0.0954
RRIRYRPPRLPRPRPRPSYMPRP	-1.41
RRIRFRPPRLPRPRPRPMGPPRP	-0.238
RRIRFRPPRLPRPRPRPDAWPRP	0.0823
RRIRIRPPRLPRPRPRPFQKPRP	-0.0135
RRIRMRPPRLPRPRPRPTTRPRP	0.832
RRIRTRPPRLPRPRPRPHQSPRP	-0.179
RRIRQRPPRLPRPRPRPHWTPRP	-0.0125
RRIRWRPPRLPRPRPRPIGEPRP	0.0833
RRIRIRPPRLPRPRPRPYIYPRP	-0.176
RRIRCRPPRLPRPRPRPDWDPRP	-0.149
RRIRLRPPRLPRPRPRPGESPRP	0.0313
RRIRTRPPRLPRPRPRPQVQPRP	-0.0311
RRIRIRPPRLPRPRPRPSPIPRP	-0.574
RRIRHRPPRLPRPRPRPLCPPRP	-0.138

Sequence	shrunken log2 fold change
RRIRFRPPRLPRPRPRPYAPPRP	-0.496
RRIRERPPRLPRPRPRPFKYPRP	-0.0322
RRIRGRPPRLPRPRPRPARNPRP	0.51
RRIRMRPPRLPRPRPRPIRAPRP	0.3
RRIRSRPPRLPRPRPRPFGAPRP	0.162
RRIRDRPPRLPRPRPRPWMIPRP	-0.124
RRIRSRPPRLPRPRPRPIYRPRP	0.0394
RRIRGRPPRLPRPRPRPIGVPRP	-0.0542
RRIRERPPRLPRPRPRPHDHPRP	-0.224
RRIRKRPPRLPRPRPRPPILPRP	0.0292
RRIRQRPPRLPRPRPRPATMPRP	-0.0699
RRIRHRPPRLPRPRPRPNLKPRP	-0.465
RRIRKRPPRLPRPRPRPILVPRP	0.0199
RRIRTRPPRLPRPRPRPCYIPRP	-0.226
RRIRGRPPRLPRPRPRPITNPRP	0.201
RRIRRRPPRLPRPRPRPCGFPRP	0.265
RRIRVRPPRLPRPRPRPHHWPRP	-0.157
RRIRMRPPRLPRPRPRPCLGPRP	0.0639
RRIRGRPPRLPRPRPRPTLMPRP	0.815
RRIRKRPPRLPRPRPRPHNLPRP	0.0314
RRIRLRPPRLPRPRPRPRNTPRP	-0.0367
RRIRVRPPRLPRPRPRPANKPRP	-0.36
RRIRKRPPRLPRPRPRPWPWPRP	0.847
RRIRLRPPRLPRPRPRPCHFPRP	-0.285
RRIRSRPPRLPRPRPRPKMIPRP	-0.292

Sequence	shrunken log2 fold change
RRIRGRPPRLPRPRPRPKRWPRP	0.796
RRIRHRPPRLPRPRPRPRWAPRP	0.315
RRIRMRPPRLPRPRPRPRPIPRP	0.754
RRIRIRPPRLPRPRPRPCSMPRP	-0.00947
RRIRARPPRLPRPRPRPFVFPRP	0.166
RRIRMRPPRLPRPRPRPLMWPRP	0.268
RRIRWRPPRLPRPRPRPEAGPRP	0.877
RRIRYRPPRLPRPRPRPRTEPRP	-0.188
RRIRGRPPRLPRPRPRPEEWPRP	1.7
RRIRWRPPRLPRPRPRPNGPPRP	-0.0107
RRIRARPPRLPRPRPRPTAMPRP	0.822
RRIRGRPPRLPRPRPRPNKWPRP	0.0346
RRIRMRPPRLPRPRPRPCYNPRP	-0.247
RRIRDRPPRLPRPRPRPHWPPRP	0.197
RRIRYRPPRLPRPRPRPEIFPRP	-0.159
RRIRWRPPRLPRPRPRPIQDPRP	0.0265
RRIRRRPPRLPRPRPRPGFPPRP	3.88
RRIRYRPPRLPRPRPRPCKRPRP	-0.0961
RRIRDRPPRLPRPRPRPGGCPRP	0.687
RRIRHRPPRLPRPRPRPQWVPRP	0.0322
RRIRMRPPRLPRPRPRPYQIPRP	-0.0607
RRIRNRPPRLPRPRPRPRENPRP	-0.0577
RRIRTRPPRLPRPRPRPVILPRP	-0.994
RRIRMRPPRLPRPRPRPLTDPRP	1.69
RRIRHRPPRLPRPRPRPDGHPRP	-0.0262
